Patent US20200024330A1 (published 2020)
Positions count from the first letter of the chain named.

Legend:
[1] = molecular target: T1, recombinant monomeric gp120 of HIV-1 isolate JR-CSF (HIV-1 isolate JR-CSF, UniProt P20871 32-503); assay: anti-gp120 ELISA, B cell culture supernatant on captured gp120
T1 construct: domain: gp120

[2] = molecular target: HIV-1 APV-17 envelope protein (Env) on pseudovirus (HIV-1 isolate APV-17); assay: cell-based or functional assay
[3] = molecular target: HIV-1 92UG024 envelope protein (Env) on pseudovirus (HIV-1 isolate 92UG024); assay: cell-based or functional assay
[4] = molecular target: HIV-1 IAVI-C3 envelope protein (Env) on pseudovirus (HIV-1 isolate IAVI-C3); assay: cell-based or functional assay
[5] = molecular target: HIV-1 92UG005 envelope protein (Env) on pseudovirus (HIV-1 isolate 92UG005); assay: cell-based or functional assay
[6] = molecular target: HIV-1 APV-13 envelope protein (Env) on pseudovirus (HIV-1 isolate APV-13); assay: cell-based or functional assay
[7] = molecular target: HIV-1 92RW020 envelope protein (Env) on pseudovirus (HIV-1 isolate 92RW020); assay: cell-based or functional assay
[8] = molecular target: HIV-1 93IN905 envelope protein (Env) on pseudovirus (HIV-1 isolate 93IN905); assay: cell-based or functional assay
[9] = molecular target: HIV-1 CMU02 envelope protein (Env) on pseudovirus (HIV-1 isolate CMU02); assay: cell-based or functional assay
[10] = molecular target: HIV-1 93UG077 envelope protein (Env) on pseudovirus (HIV-1 isolate 93UG077); assay: cell-based or functional assay
[11] = molecular target: HIV-1 IAVI-C22 envelope protein (Env) on pseudovirus (HIV-1 isolate IAVI-C22); assay: cell-based or functional assay
[12] = molecular target: HIV-1 APV-6 envelope protein (Env) on pseudovirus (HIV-1 isolate APV-6); assay: cell-based or functional assay
[13] = molecular target: aMLV envelope protein on pseudovirus (negative control) (aMLV); assay: cell-based or functional assay
[14] = molecular target: HIV-1 92TH021 envelope protein (Env) on pseudovirus (HIV-1 isolate 92TH021); assay: cell-based or functional assay
[15] = molecular target: HIV-1 92BR020 envelope protein (Env) on pseudovirus (HIV-1 isolate 92BR020); assay: cell-based or functional assay
[16] = molecular target: HIV-1 IAVI-C18 envelope protein (Env) on pseudovirus (HIV-1 isolate IAVI-C18); assay: cell-based or functional assay
[17] = molecular target: HIV-1 94UG103 envelope protein (Env) on pseudovirus (HIV-1 isolate 94UG103); assay: cell-based or functional assay
[18] = molecular target: aMLV envelope protein on pseudotyped virus (negative control) (aMLV); assay: cell-based or functional assay

B1: 1460_G14 (PGG14) (antibody, V domains shown)
VH: QVLLVQSGTEVKKPGSSVKVSCQASGGAFSSYAFSWVRQAPGQGLEWMGMITPVFGETKYAPRFQGRLTLTAEESLSTTYMELRSLTSDDTAFYYCTRDRRVVPMATDNWLDPWGQGTLVTVSS
VL: DIQLTQSPSSLSASVGDRVTVTCRASQTIHTYLNWYQQIPGKAPKLLIYGASTLQSGVPSRFSGSGSGTDFTLTINSLQPEDFATYYCQQSYSTPRTFGQGTRLDIK
notes: also called B cell culture plate 1460 well G14
ELISA OD [1]: 3.49 OD

B2: 1495_C14 (PGC14) (antibody, human IgG1, lambda, V domains shown)
VH: DGHLVQSGVEVKKTGATVKISCKVSGYSFIDYYLHWVQRAPGKGLEWVGLIDPENGEARYAEKFQGRVTIIADTSIDTGYMEMRSLKSEDTAVYFCAAGAVGADSGSWFDPWGQGTLVTVSS
VL: SYELTQPPSVSVSPGQTASITCSGSKLGDKYVSWYQLRPGQSPILVMYENDRRPSGIPERFSGSNSGDTATLTISGTQALDEADFYCQAWETTTTTFVFFGGGTQLTVLG
IC50 (µg/mL), pseudovirus neutralization [2]: > 50 µg/mL
IC50 (µg/mL), pseudovirus neutralization [3]: > 50 µg/mL
IC50 (µg/mL), pseudovirus neutralization [4]: 9.5 µg/mL
IC50 (µg/mL), pseudovirus neutralization [5]: > 50 µg/mL
IC50 (µg/mL), pseudovirus neutralization [6]: > 50 µg/mL
IC50 (µg/mL), pseudovirus neutralization [7]: 28.6 µg/mL
IC50 (µg/mL), pseudovirus neutralization [8]: > 50 µg/mL
IC50 (µg/mL), pseudovirus neutralization [9]: > 50 µg/mL
IC50 (µg/mL), pseudovirus neutralization [10]: > 50 µg/mL
IC50 (µg/mL), pseudovirus neutralization [11]: > 50 µg/mL
IC50 (µg/mL), pseudovirus neutralization [12]: 7.41 µg/mL
IC50 (µg/mL), pseudovirus neutralization [13]: > 50 µg/mL
IC50 (µg/mL), pseudovirus neutralization [14]: > 50 µg/mL
IC50 (µg/mL), pseudovirus neutralization [15]: 0.64 µg/mL
IC50 (µg/mL), pseudovirus neutralization [16]: > 50 µg/mL
IC50 (µg/mL), pseudovirus neutralization [17]: > 50 µg/mL

B3: 1495_C14 (PGC14) (antibody, V domains shown)
VH: B2 VH
VL: SYELTQPPSVSVSPGQTASITCSGSKLGDKYVSWYQLRPGQSPILVMYENDRRPSGIPERFSGSNSGDTATLTISGTQALDEADFYCQAWETTTTTFVFFGGGTQLTVL
notes: also called B cell culture plate 1495 well C14
ELISA OD [1]: 3.76 OD

B4: 1496_C09 (PG9) (TCN-109) (antibody, V domains shown)
VH: QRLVESGGGVVQPGSSLRLSCAASGFDFSRQGMHWVRQAPGQGLEWVAFIKYDGSEKYHADSVWGRLSISRDNSKDTLYLQMNSLRVEDTATYFCVREAGGPDYRNGYNYYDFYDGYYNYHYMDVWGKGTTVTVSS
VL: QSALTQPASVSGSPGQSITISCNGTSNDVGGYESVSWYQQHPGKAPKVVIYDVSKRPSGVSNRFSGSKSGNTASLTISGLQAEDEGDYYCKSLTSTRRRVFGTGTKLTVLG
IC50 (µg/mL), pseudovirus neutralization [2]: 26.4 µg/mL
IC50 (µg/mL), pseudovirus neutralization [4]: 12.9 µg/mL
IC50 (µg/mL), pseudovirus neutralization [5]: > 50 µg/mL
IC50 (µg/mL), pseudovirus neutralization [6]: > 50 µg/mL
IC50 (µg/mL), pseudovirus neutralization [7]: 0.06 µg/mL
IC50 (µg/mL), pseudovirus neutralization [9]: > 50 µg/mL
IC50 (µg/mL), pseudovirus neutralization [10]: > 50 µg/mL
IC50 (µg/mL), pseudovirus neutralization [12]: 0.09 µg/mL
IC50 (µg/mL), pseudovirus neutralization [13]: > 50 µg/mL
IC50 (µg/mL), pseudovirus neutralization [15]: > 50 µg/mL
IC50 (µg/mL), pseudovirus neutralization [16]: 0.05 µg/mL
IC50 (µg/mL), pseudovirus neutralization [17]: 0.17 µg/mL

B5: 1456_P20 (PG20) (antibody, human IgG1, kappa, V domains shown)
VH: QVRLVQSGPEVKKPGSSVTVSCQASGGTFSSYAFTWVRQAPGQGLEWLGMVTPIFGEAKYSQRFEGRVTITADESTSTTSIELRGLTSEDTAIYYCARDRRAVPIATDNWLDPWGQGTLVTVSS
VL: DIQLTQSPSSLSASVGDRVSITCRASQTINNYLNWYQQTPGKAPKLLIYGASNLQNGVPSRFSGSGSGTDFTLTISSLQPEDFATYYCQQSFSTPRTFGQGTRLDIKR
IC50 (µg/mL), pseudovirus neutralization [2]: > 50 µg/mL
IC50 (µg/mL), pseudovirus neutralization [3]: > 50 µg/mL
IC50 (µg/mL), pseudovirus neutralization [4]: > 50 µg/mL
IC50 (µg/mL), pseudovirus neutralization [5]: > 50 µg/mL
IC50 (µg/mL), pseudovirus neutralization [6]: > 50 µg/mL
IC50 (µg/mL), pseudovirus neutralization [7]: 50 µg/mL
IC50 (µg/mL), pseudovirus neutralization [8]: > 50 µg/mL
IC50 (µg/mL), pseudovirus neutralization [9]: > 50 µg/mL
IC50 (µg/mL), pseudovirus neutralization [10]: > 50 µg/mL
IC50 (µg/mL), pseudovirus neutralization [11]: > 50 µg/mL
IC50 (µg/mL), pseudovirus neutralization [12]: 25.8 µg/mL
IC50 (µg/mL), pseudovirus neutralization [13]: > 50 µg/mL
IC50 (µg/mL), pseudovirus neutralization [14]: > 50 µg/mL
IC50 (µg/mL), pseudovirus neutralization [15]: > 50 µg/mL
IC50 (µg/mL), pseudovirus neutralization [16]: > 50 µg/mL
IC50 (µg/mL), pseudovirus neutralization [17]: > 50 µg/mL

B6: 1460_G14 (PGG14) (antibody, V domains shown)
VH: B1 VH
VL: B5 VL with S20T, I21V, N30H, N31T, T39I, N53T, N56S, S76N, F92Y
IC50, pseudovirus neutralization, 1 hour Virus/Ab Incubation [18]: > 50 µg/mL
IC50, pseudovirus neutralization, 18 hour Virus/Ab Incubation [18]: > 50 µg/mL

B7: 1460_G14 (PGG14) (antibody, human IgG1, kappa, V domains shown)
VH: B1 VH
VL: B5 VL with S20T, I21V, N30H, N31T, T39I, N53T, N56S, S76N, F92Y
IC50 (µg/mL), pseudovirus neutralization [2]: > 50 µg/mL
IC50 (µg/mL), pseudovirus neutralization [3]: > 50 µg/mL
IC50 (µg/mL), pseudovirus neutralization [4]: > 50 µg/mL
IC50 (µg/mL), pseudovirus neutralization [5]: > 50 µg/mL
IC50 (µg/mL), pseudovirus neutralization [6]: > 50 µg/mL
IC50 (µg/mL), pseudovirus neutralization [7]: > 50 µg/mL
IC50 (µg/mL), pseudovirus neutralization [8]: > 50 µg/mL
IC50 (µg/mL), pseudovirus neutralization [9]: > 50 µg/mL
IC50 (µg/mL), pseudovirus neutralization [10]: > 50 µg/mL
IC50 (µg/mL), pseudovirus neutralization [11]: > 50 µg/mL
IC50 (µg/mL), pseudovirus neutralization [12]: > 50 µg/mL
IC50 (µg/mL), pseudovirus neutralization [13]: > 50 µg/mL
IC50 (µg/mL), pseudovirus neutralization [14]: > 50 µg/mL
IC50 (µg/mL), pseudovirus neutralization [15]: > 50 µg/mL
IC50 (µg/mL), pseudovirus neutralization [16]: > 50 µg/mL
IC50 (µg/mL), pseudovirus neutralization [17]: > 50 µg/mL

B8: 1456_P20 (PG20) (antibody, V domains shown)
VH: B5 VH
VL: B1 VL with T20S, V21I, H30N, T31N, I39T, T53N, S56N, N76S, Y92F
notes: also called B cell culture plate 1456 well P20
ELISA OD [1]: 3.78 OD

B9: 1443_C16 (PG16) (TCN-116) (antibody, V domains shown)
VH: QEQLVESGGGVVQPGGSLRLSCLASGFTFHKYGMHWVRQAPGKGLEWVALISDDGMRKYHSDSMWGRVTISRDNSKNTLYLQFSSLKVEDTAMFFCAREAGGPIWHDDVKYYDFNDGYYNYHYMDVWGKGTTVTVSS
VL: QSALTQPASVSGSPGQTITISCNGTSSDVGGFDSVSWYQQSPGKAPKVMVFDVSHRPSGISNRFSGSKSGNTASLTISGLHIEDEGDYFCSSLTDRSHRIFGGGTKVTVLG
IC50 (µg/mL), pseudovirus neutralization [2]: > 50 µg/mL
IC50 (µg/mL), pseudovirus neutralization [3]: > 50 µg/mL
IC50 (µg/mL), pseudovirus neutralization [4]: 14.8 µg/mL
IC50 (µg/mL), pseudovirus neutralization [5]: > 50 µg/mL
IC50 (µg/mL), pseudovirus neutralization [6]: > 50 µg/mL
IC50 (µg/mL), pseudovirus neutralization [7]: 0.004 µg/mL
IC50 (µg/mL), pseudovirus neutralization [8]: 0.1 µg/mL
IC50 (µg/mL), pseudovirus neutralization [9]: > 50 µg/mL
IC50 (µg/mL), pseudovirus neutralization [10]: > 50 µg/mL
IC50 (µg/mL), pseudovirus neutralization [11]: 0.069 µg/mL
IC50 (µg/mL), pseudovirus neutralization [12]: 0.08 µg/mL
IC50 (µg/mL), pseudovirus neutralization [13]: > 50 µg/mL
IC50 (µg/mL), pseudovirus neutralization [14]: 0.13 µg/mL
IC50 (µg/mL), pseudovirus neutralization [15]: > 50 µg/mL
IC50 (µg/mL), pseudovirus neutralization [16]: 0.007 µg/mL
IC50 (µg/mL), pseudovirus neutralization [17]: 0.008 µg/mL
